The target of assay [1] is PTCH1 (Homo sapiens) (UniProt Q13635). Conditions: cited from earlier work.
Assay [2] addresses PTCH2 (Homo sapiens) (UniProt Q9Y6C5). Conditions: cited from earlier work.
The target is the same in assay [3]. Conditions: cited from earlier work. The source holds these as a separate data set.
Assay [4] deals with PTCH1 (Homo sapiens) (UniProt Q13635). Conditions: cited from earlier work. The source holds these as a separate data set.
Assay [5] shares this target. Conditions: cited from earlier work. The source holds these as a separate data set.
Assay [6] has as its target PTCH2 (Homo sapiens) (UniProt Q9Y6C5). Conditions: cited from earlier work. This is another data set of the same source.
The target of assay [7] is recombinant PTCH2 (amino acids 79 to 379; putative loop 1 ligand binding region) (UniProt Q9Y6C5). The assay can be described thus: SPR; Biacore T100; rPTCH2-His immobilised on a nickel chip; rTRP120-TR or rTrx injected at 2-fold dilutions (800nM to 25nM); three independent experiments.

Results on four substances are retold here after article PMC9135340.

Like-named read-outs stand apart in the source and are kept apart here.

PTCH1 (Homo sapiens), sequence (Q13635 whole entry): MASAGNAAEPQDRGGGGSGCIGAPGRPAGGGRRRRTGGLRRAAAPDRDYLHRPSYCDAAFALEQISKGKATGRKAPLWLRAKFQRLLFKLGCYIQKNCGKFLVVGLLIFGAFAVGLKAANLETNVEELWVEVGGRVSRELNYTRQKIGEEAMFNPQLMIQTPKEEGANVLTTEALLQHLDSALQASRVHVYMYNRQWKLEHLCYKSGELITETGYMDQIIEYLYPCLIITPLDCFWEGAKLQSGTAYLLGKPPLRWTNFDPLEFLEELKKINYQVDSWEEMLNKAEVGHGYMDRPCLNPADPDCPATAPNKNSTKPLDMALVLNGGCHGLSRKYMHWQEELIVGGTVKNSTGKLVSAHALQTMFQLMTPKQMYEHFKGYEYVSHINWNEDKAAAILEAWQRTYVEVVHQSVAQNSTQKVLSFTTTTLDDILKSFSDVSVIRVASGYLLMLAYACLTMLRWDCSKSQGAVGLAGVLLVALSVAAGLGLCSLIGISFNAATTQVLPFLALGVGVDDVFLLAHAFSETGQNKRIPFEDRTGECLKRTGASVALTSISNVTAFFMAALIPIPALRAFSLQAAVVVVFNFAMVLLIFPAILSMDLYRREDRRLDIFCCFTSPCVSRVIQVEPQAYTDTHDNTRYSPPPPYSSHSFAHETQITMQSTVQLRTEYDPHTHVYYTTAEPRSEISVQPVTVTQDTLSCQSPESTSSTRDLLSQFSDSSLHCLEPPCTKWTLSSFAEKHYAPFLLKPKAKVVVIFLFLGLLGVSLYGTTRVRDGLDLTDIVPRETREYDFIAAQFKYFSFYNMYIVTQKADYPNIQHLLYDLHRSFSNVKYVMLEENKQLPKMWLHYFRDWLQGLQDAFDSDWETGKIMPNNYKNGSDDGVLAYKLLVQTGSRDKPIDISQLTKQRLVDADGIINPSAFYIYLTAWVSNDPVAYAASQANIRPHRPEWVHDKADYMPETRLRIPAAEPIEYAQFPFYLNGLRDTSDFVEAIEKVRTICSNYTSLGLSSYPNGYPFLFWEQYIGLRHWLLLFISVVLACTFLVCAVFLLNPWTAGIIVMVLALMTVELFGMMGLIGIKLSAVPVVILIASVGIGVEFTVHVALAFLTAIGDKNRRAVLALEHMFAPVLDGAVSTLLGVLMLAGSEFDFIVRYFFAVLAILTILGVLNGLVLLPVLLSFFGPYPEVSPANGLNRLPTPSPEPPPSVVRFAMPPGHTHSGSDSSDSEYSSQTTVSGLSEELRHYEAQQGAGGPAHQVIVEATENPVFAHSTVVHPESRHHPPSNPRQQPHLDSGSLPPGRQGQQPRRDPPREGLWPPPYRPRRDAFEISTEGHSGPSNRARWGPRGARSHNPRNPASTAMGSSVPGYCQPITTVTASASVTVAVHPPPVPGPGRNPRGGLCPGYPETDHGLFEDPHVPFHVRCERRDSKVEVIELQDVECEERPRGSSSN
PTCH2 (Homo sapiens), sequence (Q9Y6C5 whole entry, the tested form may be a part): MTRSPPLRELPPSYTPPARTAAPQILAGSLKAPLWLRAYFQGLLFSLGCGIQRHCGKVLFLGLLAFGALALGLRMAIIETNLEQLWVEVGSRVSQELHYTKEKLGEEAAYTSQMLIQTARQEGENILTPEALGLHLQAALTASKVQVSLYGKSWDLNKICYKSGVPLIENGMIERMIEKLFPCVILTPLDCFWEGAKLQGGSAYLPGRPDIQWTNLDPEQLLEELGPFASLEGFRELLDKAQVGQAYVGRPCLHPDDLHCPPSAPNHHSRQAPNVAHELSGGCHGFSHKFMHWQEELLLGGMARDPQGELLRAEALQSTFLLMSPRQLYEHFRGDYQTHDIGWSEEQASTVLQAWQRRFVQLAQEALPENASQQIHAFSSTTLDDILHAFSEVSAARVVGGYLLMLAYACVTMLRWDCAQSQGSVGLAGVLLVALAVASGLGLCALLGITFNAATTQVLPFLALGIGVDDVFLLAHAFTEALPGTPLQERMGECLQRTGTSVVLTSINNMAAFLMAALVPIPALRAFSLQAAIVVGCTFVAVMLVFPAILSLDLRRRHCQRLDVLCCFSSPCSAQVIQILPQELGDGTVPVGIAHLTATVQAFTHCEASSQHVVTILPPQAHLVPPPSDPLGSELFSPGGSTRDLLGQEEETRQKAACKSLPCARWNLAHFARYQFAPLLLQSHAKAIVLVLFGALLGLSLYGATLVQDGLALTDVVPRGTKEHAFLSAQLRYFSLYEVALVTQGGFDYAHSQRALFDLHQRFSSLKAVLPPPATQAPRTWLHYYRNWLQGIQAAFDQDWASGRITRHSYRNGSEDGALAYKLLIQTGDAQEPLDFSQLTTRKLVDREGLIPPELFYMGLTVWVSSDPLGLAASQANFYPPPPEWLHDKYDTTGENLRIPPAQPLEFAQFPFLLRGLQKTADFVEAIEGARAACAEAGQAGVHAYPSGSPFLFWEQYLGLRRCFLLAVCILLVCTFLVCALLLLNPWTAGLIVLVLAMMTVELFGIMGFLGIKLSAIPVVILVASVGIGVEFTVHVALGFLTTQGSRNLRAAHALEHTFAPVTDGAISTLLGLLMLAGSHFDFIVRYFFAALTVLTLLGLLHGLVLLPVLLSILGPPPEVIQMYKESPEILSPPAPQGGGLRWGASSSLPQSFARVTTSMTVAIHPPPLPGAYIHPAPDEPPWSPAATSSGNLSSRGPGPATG
Ihh, sequence (Q14623 28-202): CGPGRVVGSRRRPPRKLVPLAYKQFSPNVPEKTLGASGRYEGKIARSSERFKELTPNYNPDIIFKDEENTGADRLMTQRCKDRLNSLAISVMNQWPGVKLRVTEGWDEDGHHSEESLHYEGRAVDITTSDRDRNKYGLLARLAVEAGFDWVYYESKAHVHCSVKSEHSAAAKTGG
recombinant PTCH2 (amino acids 79 to 379; putative loop 1 ligand binding region), sequence (Q9Y6C5 79-379): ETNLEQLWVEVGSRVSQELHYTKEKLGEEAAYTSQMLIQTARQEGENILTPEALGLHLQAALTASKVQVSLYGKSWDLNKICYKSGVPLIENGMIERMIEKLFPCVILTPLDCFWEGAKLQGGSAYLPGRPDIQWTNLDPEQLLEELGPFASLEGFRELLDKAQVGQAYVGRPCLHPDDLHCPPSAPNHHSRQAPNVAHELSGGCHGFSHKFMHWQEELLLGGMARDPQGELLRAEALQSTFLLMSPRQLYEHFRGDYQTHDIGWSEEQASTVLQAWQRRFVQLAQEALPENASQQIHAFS

In the case of Dhh (from UniProt O43323), the Kd with PTCH1 (Homo sapiens) [1] was 2.6 nM; with PTCH2 (Homo sapiens) [2], 0.6 nM. Take Ihh (from UniProt Q14623): the figures for the Kd with PTCH2 (Homo sapiens) [3] and with PTCH1 (Homo sapiens) [4] were 0.4 nM and 1 nM, respectively.

In the case of Shh (from UniProt Q15465), the Kd with PTCH1 (Homo sapiens) [5] was 1 nM; with PTCH2 (Homo sapiens) [6] it was 1.8 nM. Turning to “recombinant TRP120 tandem repeat domain (rTRP120-TR) (domain or fragment)”, the Kd in assay [7] was 4.4 nM.
